B1: ZNF24 (parent)
chain: THTKEQILELVVLEQFVAILPKEL

Variants of: B1
Assay: protein stability index of a GFP-peptide fusion (GPS, HEK-293T) (PSI 1-6); higher = more stable
Conditions: c terminus: a fixed tail appended
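Note: lentivirally expressed fusions sorted by FACS into six bins by GFP to DsRed ratio, PSI derived from sequencing read proportions per bin multiplied by bin number.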

Variant	protein stability index
THTKEQILELWVLEQFVAILPKEL [V11W]	3.42
THTKEQILELPVLEQFVAILPKEL [V11P]	2.67
THTKEQILELKVLEQFVAILPKEL [V11K]	1.47
THTKEQILELEVLEQFVAILPKEL [V11E]	1.86
THTKEQILELHVLEQFVAILPKEL [V11H]	2.18
THTKEQILELAVLEQFVAILPKEL [V11A]	2.1
THTKEQILELDVLEQFVAILPKEL [V11D]	2.36
THTKEQILELIVLEQFVAILPKEL [V11I]	3.03
THTKEQILELRVLEQFVAILPKEL [V11R]	1.76
THTKEQILELQVLEQFVAILPKEL [V11Q]	2.05
THTKEQILELGVLEQFVAILPKEL [V11G]	2.05
THTKEQILEFVVLEQFVAILPKEL [L10F]	2.35
THTKEQILENVVLEQFVAILPKEL [L10N]	2.23
THTKEQILERVVLEQFVAILPKEL [L10R]	1.72
THTKEQILECVVLEQFVAILPKEL [L10C]	2.42
THTKEQILEAVVLEQFVAILPKEL [L10A]	2.28
THTKEQILEHVVLEQFVAILPKEL [L10H]	1.65
THTKEQILELVVLEQFVAPLPKEL [I19P]	1.73
THTKEQILELVVLEQFVASLPKEL [I19S]	1.95
THTKEQILELVVLEQFVAALPKEL [I19A]	1.98
THTKEQILELVVLEQFVADLPKEL [I19D]	1.77
THTKEQILELVVLEQFVAKLPKEL [I19K]	2.14
THTKEQILELVVLEQFVACLPKEL [I19C]	2.61
THTKEQILELVVLEQFVAVLPKEL [I19V]	4.1

Variant	protein stability index
THTKEQILELVVLEQFVAWLPKEL [I19W]	1.85
THTKEQILELVVLEQFVAILPKEN [L24N]	1.06
THTKEQILELVVLEQFVAILPKEI [L24I]	2.4
THTKEQILELVVLEQFVAILPKEA [L24A]	2.57
THTKEQILELVVLEQFVAILPKEH [L24H]	2.66
THTKEQILELVVLEQFVAILPKEG [L24G]	2.16
THTKEQILELVVLEQFVAILPKER [L24R]	2.47
THTKEQILELVVLEQFVAILPKEM [L24M]	2.8
THTKEQILELVALEQFVAILPKEL [V12A]	1.83
THTKEQILELVILEQFVAILPKEL [V12I]	3.17
THTKEQILELVNLEQFVAILPKEL [V12N]	2.14
THTKEQILELVPLEQFVAILPKEL [V12P]	2.19
THTKEQILELVLLEQFVAILPKEL [V12L]	2.12
THTKEQILELVFLEQFVAILPKEL [V12F]	2.93
THTKEQILELVMLEQFVAILPKEL [V12M]	2.51
THTKEQILELVWLEQFVAILPKEL [V12W]	2.42
THTKEQILELVVLEQFVAILPSEL [K22S]	3.45
THTKEQILELVVLEQFVAILPWEL [K22W]	2.08
THTKEQILELVVLEQFVAILPAEL [K22A]	2.63
THTKEQILELVVLEQFVAILPREL [K22R]	2.78
THMKEQILELVVLEQFVAILPKEL [T3M]	3.02
THCKEQILELVVLEQFVAILPKEL [T3C]	1.53
THPKEQILELVVLEQFVAILPKEL [T3P]	2.96
THVKEQILELVVLEQFVAILPKEL [T3V]	2

Variant	protein stability index
THFKEQILELVVLEQFVAILPKEL [T3F]	2.76
THKKEQILELVVLEQFVAILPKEL [T3K]	2.96
THDKEQILELVVLEQFVAILPKEL [T3D]	2.43
THGKEQILELVVLEQFVAILPKEL [T3G]	4.09
THNKEQILELVVLEQFVAILPKEL [T3N]	3.1
THLKEQILELVVLEQFVAILPKEL [T3L]	3.11
THQKEQILELVVLEQFVAILPKEL [T3Q]	2.81
THTKEQILELVVTEQFVAILPKEL [L13T]	2.77
THTKEQILELVVYEQFVAILPKEL [L13Y]	2.88
THTKEQILELVVWEQFVAILPKEL [L13W]	2.67
THTKEQILELVVNEQFVAILPKEL [L13N]	1.73
THTKEQILELVVPEQFVAILPKEL [L13P]	2.42
THTKEQILELVVFEQFVAILPKEL [L13F]	2.47
THTKEQILELVVGEQFVAILPKEL [L13G]	1.84
SHTKEQILELVVLEQFVAILPKEL [T1S]	3.3
QHTKEQILELVVLEQFVAILPKEL [T1Q]	1.32
RHTKEQILELVVLEQFVAILPKEL [T1R]	1.94
KHTKEQILELVVLEQFVAILPKEL [T1K]	2.39
EHTKEQILELVVLEQFVAILPKEL [T1E]	2.81
GHTKEQILELVVLEQFVAILPKEL [T1G]	2.25
CHTKEQILELVVLEQFVAILPKEL [T1C]	3.51
THTKEQILELVVLEQFVAILPKFL [E23F]	2.69
THTKEQILELVVLEQFVAILPKKL [E23K]	1.64
THTKEQILELVVLEQFVAILPKLL [E23L]	1.68

Variant	protein stability index
THTKEQILELVVLEQFVAILPKWL [E23W]	3.51
THTKEQILELVVLEQFVAILPKTL [E23T]	1.75
THTKEQILELVVLEQFVAILPKQL [E23Q]	2.54
THTKEQILELVVLEQFVAILPKRL [E23R]	2.77
THTKEQILELVVLEQFVAILYKEL [P21Y]	3.02
THTKEQILELVVLEQFVAILVKEL [P21V]	2.28
THTKEQILELVVLEQFVAILWKEL [P21W]	3.12
THTKEQILELVVLEQFVAILRKEL [P21R]	3.28
THTKEQILELVVLEQFVAILLKEL [P21L]	2.44
THTKEQILELVVLEQFVAILNKEL [P21N]	3.62
TNTKEQILELVVLEQFVAILPKEL [H2N]	2.59
TYTKEQILELVVLEQFVAILPKEL [H2Y]	2.19
TFTKEQILELVVLEQFVAILPKEL [H2F]	2.4
TMTKEQILELVVLEQFVAILPKEL [H2M]	3.24
TWTKEQILELVVLEQFVAILPKEL [H2W]	3.14
TDTKEQILELVVLEQFVAILPKEL [H2D]	4.11
THTKEQILELVVLEQGVAILPKEL [F16G]	1.69
THTKEQILELVVLEQQVAILPKEL [F16Q]	2.01
THTKEQILELVVLEQPVAILPKEL [F16P]	1.94
THTKEQILELVVLEQMVAILPKEL [F16M]	2.5
THTKEQILELVVLEQSVAILPKEL [F16S]	2.27
THTKEQILELVVLEQAVAILPKEL [F16A]	1.91
THTKEQILELVVLEQCVAILPKEL [F16C]	1.77
THTKEQILELVVLEQTVAILPKEL [F16T]	1.82

Variant	protein stability index
THTKEQILELVVLEQEVAILPKEL [F16E]	2.03
THTKEQILELVVLEQFVAINPKEL [L20N]	1.83
THTKEQILELVVLEQFVAIAPKEL [L20A]	3.07
THTKEQILELVVLEQFVAIGPKEL [L20G]	1.94
THTKEQILELVVLEQFVAIMPKEL [L20M]	1.95
THTKEQILELVVLEQFVAIVPKEL [L20V]	2.19
THTKEQILELVVLEQFVAISPKEL [L20S]	2.33
THTKEQVLELVVLEQFVAILPKEL [I7V]	1.29
THTKEQMLELVVLEQFVAILPKEL [I7M]	3.04
THTKEQNLELVVLEQFVAILPKEL [I7N]	1.65
THTKEQPLELVVLEQFVAILPKEL [I7P]	2.48
THTKEQDLELVVLEQFVAILPKEL [I7D]	2.35
THTKEQQLELVVLEQFVAILPKEL [I7Q]	1.89
THTKEQKLELVVLEQFVAILPKEL [I7K]	1.56
THTKEQRLELVVLEQFVAILPKEL [I7R]	1.9
THTKEQYLELVVLEQFVAILPKEL [I7Y]	3.29
THTKEQALELVVLEQFVAILPKEL [I7A]	1.74
THTKRQILELVVLEQFVAILPKEL [E5R]	3.65
THTKWQILELVVLEQFVAILPKEL [E5W]	2.85
THTKYQILELVVLEQFVAILPKEL [E5Y]	2.01
THTKAQILELVVLEQFVAILPKEL [E5A]	2
THTKNQILELVVLEQFVAILPKEL [E5N]	3.01
THTKGQILELVVLEQFVAILPKEL [E5G]	2.7
THTKTQILELVVLEQFVAILPKEL [E5T]	3.59

Variant	protein stability index
THTKHQILELVVLEQFVAILPKEL [E5H]	2.42
THTKVQILELVVLEQFVAILPKEL [E5V]	3.53
THTKFQILELVVLEQFVAILPKEL [E5F]	2.12
THTKLQILELVVLEQFVAILPKEL [E5L]	2.78
THTKQQILELVVLEQFVAILPKEL [E5Q]	2.97
THTKEQINELVVLEQFVAILPKEL [L8N]	1.57
THTKEQIPELVVLEQFVAILPKEL [L8P]	2.16
THTKEQIHELVVLEQFVAILPKEL [L8H]	2.1
THTKEQIYELVVLEQFVAILPKEL [L8Y]	2.66
THTKEQIRELVVLEQFVAILPKEL [L8R]	1.85
THTKEQIFELVVLEQFVAILPKEL [L8F]	3.62
THTKEQIQELVVLEQFVAILPKEL [L8Q]	1.95
THTKEQIKELVVLEQFVAILPKEL [L8K]	1.84
THTKEQIMELVVLEQFVAILPKEL [L8M]	2.41
THTKEQILSLVVLEQFVAILPKEL [E9S]	3.48
THTKEQILCLVVLEQFVAILPKEL [E9C]	1.64
THTKEQILFLVVLEQFVAILPKEL [E9F]	2.82
THTKEQILGLVVLEQFVAILPKEL [E9G]	2.85
THTKEQILDLVVLEQFVAILPKEL [E9D]	2.28
THTKEQILWLVVLEQFVAILPKEL [E9W]	2.87
THTKEQILKLVVLEQFVAILPKEL [E9K]	2.77
THTKEQILELVVLSQFVAILPKEL [E14S]	2.53
THTKEQILELVVLQQFVAILPKEL [E14Q]	2.97
THTKEQILELVVLMQFVAILPKEL [E14M]	2.67

Variant	protein stability index
THTKEQILELVVLNQFVAILPKEL [E14N]	3.68
THTKEQILELVVLCQFVAILPKEL [E14C]	2.45
THTKEQILELVVLIQFVAILPKEL [E14I]	3.12
THTIEQILELVVLEQFVAILPKEL [K4I]	3.38
THTAEQILELVVLEQFVAILPKEL [K4A]	2.93
THTTEQILELVVLEQFVAILPKEL [K4T]	1.83
THTCEQILELVVLEQFVAILPKEL [K4C]	3.41
THTEEQILELVVLEQFVAILPKEL [K4E]	1.58
THTMEQILELVVLEQFVAILPKEL [K4M]	2.91
THTGEQILELVVLEQFVAILPKEL [K4G]	3.12
THTSEQILELVVLEQFVAILPKEL [K4S]	2.19
THTKEQILELVVLEQFVSILPKEL [A18S]	1.95
THTKEQILELVVLEQFVTILPKEL [A18T]	2.2
THTKEQILELVVLEQFVLILPKEL [A18L]	2.04
THTKEQILELVVLEQFVEILPKEL [A18E]	2.1
THTKEQILELVVLEQFVKILPKEL [A18K]	2.49
THTKEQILELVVLEQFVNILPKEL [A18N]	2.67
THTKEQILELVVLEQFVFILPKEL [A18F]	1.44
THTKEQILELVVLEQFVRILPKEL [A18R]	2.05
THTKEDILELVVLEQFVAILPKEL [Q6D]	1.55
THTKENILELVVLEQFVAILPKEL [Q6N]	2.52
THTKEIILELVVLEQFVAILPKEL [Q6I]	3.01
THTKEEILELVVLEQFVAILPKEL [Q6E]	2.46
THTKEWILELVVLEQFVAILPKEL [Q6W]	2.41

Variant	protein stability index
THTKEHILELVVLEQFVAILPKEL [Q6H]	1.8
THTKEKILELVVLEQFVAILPKEL [Q6K]	3.65
THTKECILELVVLEQFVAILPKEL [Q6C]	2.11
THTKESILELVVLEQFVAILPKEL [Q6S]	2.96
THTKEPILELVVLEQFVAILPKEL [Q6P]	4
THTKEQILELVVLEGFVAILPKEL [Q15G]	2.95
THTKEQILELVVLECFVAILPKEL [Q15C]	1.66
THTKEQILELVVLEMFVAILPKEL [Q15M]	2.63
THTKEQILELVVLELFVAILPKEL [Q15L]	2.44
THTKEQILELVVLEHFVAILPKEL [Q15H]	2.53
THTKEQILELVVLEWFVAILPKEL [Q15W]	2.82
THTKEQILELVVLEDFVAILPKEL [Q15D]	1.91
THTKEQILELVVLEQFSAILPKEL [V17S]	2.95
THTKEQILELVVLEQFHAILPKEL [V17H]	2.25
THTKEQILELVVLEQFNAILPKEL [V17N]	1.72
THTKEQILELVVLEQFMAILPKEL [V17M]	2.31
THTKEQILELVVLEQFKAILPKEL [V17K]	1.54
THTKEQILELVVLEQFGAILPKEL [V17G]	1.52
THTKEQILELVVLEQFPAILPKEL [V17P]	1.94
THTKEQILELVVLEQFWAILPKEL [V17W]	2.19
